Source: PMC9929924, “Phosphorylation of the receptor protein Pex5p modulates import of proteins into peroxisomes” (Biological Chemistry, 2022)

How the values were obtained:
[1] = tested on: docking complex (Pex14p/Pex17p/Pex13p); test: Association of Pex5p variants with the peroxisomal docking complex; assay type: binding, S. cerevisiae; conditions: TPA-tagged Pex5p variants, digitonin-solubilized membrane fractions; immunoblot
Procedure: Pex5p was affinity-purified from crude membrane and cytosolic fractions prepared from oleic acid-induced cells expressing TPA-tagged Pex5p as described before with slight modifications ([Agne et al. 2003]; [Schafer et al. 2004]). In brief, cytosolic and membrane fractions were prepared as described above using lysis buffer containing 10% (v/v) glycerol. For the analysis of Pex5p phosphorylation sites, crude membrane fractions were resuspended in glycerol-containing lysis buffer, the protein concentration was adjusted to 5 mg ml^−1, and proteins were solubilized using 1% (v/v) Triton X-100. Unsolubilized material was removed by centrifugation (100,000 g, 1 h, 4 °C). The cleared detergent extracts as well as cytosolic fractions were subjected to affinity purification via IgG Sepharose. Proteins bound to the matrix were eluted by incubation with AcTEV protease (Thermo Fisher Scientific/Invitrogen) followed by addition of Ni-NTA agarose to remove the His-tagged TEV protease. Eluted proteins were collected by centrifugation and precipitated by adding the fivefold volume of ice-cold acetone followed by incubation at −20 °C for at least 1 h. […]
Immunoblot analyses were performed according to standard procedures. […] Quantification of immunoblot signals (Supplementary Figure 1E; n = 3) was performed using the software Image Studio Lite (LI-COR Biosciences).

yeast cells = test: Growth of yeast cells expressing Pex5p variants; assay type: cell-based, S. cerevisiae; conditions: n = 3; for growth in oleate: oleate as sole carbon source (YNO medium)
Source text: Synthetic complete (SC) medium consisted of 0.17% (w/v) yeast nitrogen base (YNB) without amino acids, 0.5% (w/v) ammonium sulfate, and 0.3% (w/v) glucose (pH 6.0) supplemented with appropriate amino acids ([Schummer et al. 2017]). YNO medium contained 0.1% (v/v) oleic acid, 0.05% (v/v) Tween 40, 0.5% (w/v) ammonium sulfate, and 0.17% (w/v) yeast nitrogen base without amino acids, adjusted to pH 6.0 and supplemented with appropriate amino acids. For growth under peroxisome-proliferating conditions, cells were cultured at 30 °C in SC medium until they reached an optical density at 600 nm (OD600) of 1–1.5 and then shifted to YNO medium to induce peroxisome proliferation. Cells were grown for further 12–16 h or as indicated. For growth of cells in glucose medium, SC medium was supplemented with 2% (w/v) glucose.

[2] = tested on: GFP-SKL import in pex5Δ yeast cells; test: Fluorescence microscopy, import of GFP-SKL in cells expressing Pex5p variants; assay type: cell-based, S. cerevisiae; conditions: pex5Δ cells expressing plasmid-encoded Pex5p variant and GFP-SKL, grown in oleate
Procedure: Cells expressing distinct Pex5p variants (wildtype, Pex5p^2A or Pex5p^2D) and GFP-SKL were grown overnight in 50 ml YNO medium supplemented with 0.1% (w/v) glucose to an OD600 of 1–1.5. Aliquots of 5.4 ml were taken and formaldehyde was added to a final concentration of 3.7% (v/v). Samples were incubated for 10 min at RT with slight agitation. Cells were collected by centrifugation (5 min at 2000 g), resuspended in 1 ml of 0.1 M potassium phosphate buffer (pH 6.8) containing 3.7% (v/v) formaldehyde and incubated for 1 h at RT with slight agitation. Following centrifugation (30 s at 16,000 g), cells were resuspended in 1 ml of 0.1 M potassium phosphate buffer (pH 6.8) containing 10 mM ethanolamine and incubated for further 10 min at RT. Subsequently, cells were washed twice with phosphate-buffered saline (PBS) and resuspended in 10–20 µl of PBS containing 0.1% (v/v) Triton X-100. Fixed cells were analyzed within 48 h after preparation.
Fluorescence microscopy was performed using a Zeiss Axio Observer.Z1 microscope equipped with an alpha Plan-Aprochromat 100× objective and an AxioCam MR R3. GFP signal was visualized with a 38 HE filterset from Zeiss. Images were processed using Adobe Photoshop CS5 (version 12.0.4 ×64; Adobe Systems Incorporated). To document the structural integrity of cells, bright field images were acquired, adjusted in a way that only the cell boundaries were visible and subsequently added into the blue channel in Photoshop as reported before ([Motley and Hettema 2007]).

[3] = Circular dichroism, folding of Pex5p variants; assay type: physicochemical; conditions: far-UV CD; 25 mM phosphate buffer pH 7.5, 150 mM NaF; 0.2 mg ml^−1
Procedure: Circular dichroism (CD) experiments were performed on a J-810 spectropolarimeter (Jasco). Proteins were dialyzed against 25 mM phosphate buffer (pH 7.5), 150 mM NaF. Far-UV spectra were recorded between 180 and 280 nm, using a 1-mm cuvette and a concentration of 0.2 mg ml^−1 protein. The machine settings were 1 nm bandwidth, 1 s response, 1 nm data pitch and 100 nm min^−1 scan speed.

organellar pellet = test: Distribution of Pex5p variants between cytosolic fraction and organellar pellet; assay type: cell-based, S. cerevisiae; conditions: postnuclear supernatants of oleate-grown cells; immunoblot; n = 3
Procedure: Spheroplasting of yeast cells, homogenization, preparation of postnuclear supernatants and generation of cytosolic fractions and organellar pellets by centrifugation (25,000 g for 15 min at 4 °C) were performed as described previously ([Erdmann et al. 1989]).
Immunoblot analyses were performed according to standard procedures. Polyclonal rabbit antibodies used were raised against Pex5p ([Albertini et al. 1997]), Pex14p ([Girzalsky et al. 1999]), Pex13p ([Girzalsky et al. 1999]) and Pex17p ([Huhse et al. 1998]). To detect GFP, monoclonal mouse antibodies (Sigma-Aldrich/Merck or Roche Diagnostics, Germany) were used. Immuno-reactive complexes were visualized either using the IRDye 800CW goat anti-mouse IgG or IRDye 680RD goat anti-rabbit secondary antibody (Li-COR Biosciences, Bad Homburg, Germany) followed by detection with an ‘Infrarot Imaging System’ (Li-COR Biosciences) or using horseradish-peroxidase coupled anti-rabbit or anti-mouse antibodies (Sigma-Aldrich/Merck, Germany) and subsequent detection of chemiluminescence signals with a ChemoCam Camera system (INTAS Science instruments GmbH, Göttingen, Germany). Quantification of immunoblot signals (Supplementary Figure 1E; n = 3) was performed using the software Image Studio Lite (LI-COR Biosciences).

B1: Pex5p^WT: Pex5p wildtype, PTS1 receptor of S. cerevisiae (protein)
chain: MDVGSCSVGNNPLAQLHKHTQQNKSLQFNQKNNGRLNESPLQGTNKPGISEAFISNVNAISQENMANMQRFINGEPLIDDKRRMEIGPSSGRLPPFSNVHSLQTSANPTQIKGVNDISHWSQEFQGSNSIQNRNADTGNSEKAWQRGSTTASSRFQYPNTMMNNYAYASMNSLSGSRLQSPAFMNQQQSGRSKEGVNEQEQQPWTDQFEKLEKEVSENLDINDEIEKEENVSEVEQNKPETVEKEEGVYGDQYQSDFQEVWDSIHKDAEEVLPSELVNDDLNLGEDYLKYLGGRVNGNIEYAFQSNNEYFNNPNAYKIGCLLMENGAKLSEAALAFEAAVKEKPDHVDAWLRLGLVQTQNEKELNGISALEECLKLDPKNLEAMKTLAISYINEGYDMSAFTMLDKWAETKYPEIWSRIKQQDDKFQKEKGFTHIDMNAHITKQFLQLANNLSTIDPEIQLCLGLLFYTKDDFDKTIDCFESALRVNPNDELMWNRLGASLANSNRSEEAIQAYHRALQLKPSFVRARYNLAVSSMNIGCFKEAAGYLLSVLSMHEVNTNNKKGDVGSLLNTYNDTVIETLKRVFIAMNRDDLLQEVKPGMDLKRFKGEFSF
modifications: left off: His6, N-terminal, state not stated
notes: Pex5p wildtype, PTS1 receptor of S. cerevisiae
- composition of docking complex and abundance of individual proteins [1]: comparable irrespective of the Pex5p variant expressed
- growth on glucose (yeast cells; SC medium containing 2% glucose, compared to Pex5p^WT cells): equivalent to Pex5p^WT cells
- growth in oleate (yeast cells; listed as Pex5p^2A): grew similar to wildtype cells in oleate
- growth in oleate (yeast cells; listed as Pex5p^2D): significant growth defect
- subcellular distribution of GFP-SKL [2]: import of GFP-SKL is restored
- subcellular distribution of GFP-SKL ([2]; listed as Pex5p^2A): no import phenotype
- subcellular distribution of GFP-SKL ([2]; listed as Pex5p^2D): both a punctate staining and diffuse cytosolic fluorescence, suggesting a reduced import of GFP-SKL into peroxisomes
- folding [3]: folded with no major structural changes
- distribution between cytosolic fraction and organellar pellet (membrane binding) (organellar pellet): no detectable difference
